PMC11892261, “NONO interacts with nuclear PKM2 and directs histone H3 phosphorylation to promote triple-negative breast cancer metastasis” (Journal of Experimental & Clinical Cancer Research : CR, 2025)

B3: His-NONO fusion protein (natural protein, UniProt Q15233 1-471, looked up)
chain: MQSNKTFNLEKQNHTPRKHHQHHHQQQHHQQQQQQPPPPPIPANGQQASSQNEGLTIDLKNFRKPGEKTFTQRSRLFVGNLPPDITEEEMRKLFEKYGKAGEVFIHKDKGFGFIRLETRTLAEIAKVELDNMPLRGKQLRVRFACHSASLTVRNLPQYVSNELLEEAFSVFGQVERAVVIVDDRGRPSGKGIVEFSGKPAARKALDRCSEGSFLLTTFPRPVTVEPMDQLDDEEGLPEKLVIKNQQFHKEREQPPRFAQPGSFEYEYAMRWKALIEMEKQQQDQVDRNIKEAREKLEMEMEAARHEHQVMLMRQDLMRRQEELRRMEELHNQEVQKRKQLELRQEEERRRREEEMRRQQEEMMRRQQEGFKGTFPDAREQEIRMGQMAMGGAMGINNRGAMPPAPVPAGTPAPPGPATMMPDGTLGLTPPTTERFGQAATMEGIGAIGGTPPAFNRAAPGAEFAPNKRRRY
notes: NONO, from the pET28a plasmid; source: E. coli BL21, purified (nickel-nitrilotriacetic acid beads)

Key:
Conditions in all cases: both partners purified
His-NONO fusion protein = target: B3; test: pull-down; GST pull-down: GST-PKM2 (full length, fragments or mutants) incubated with His-NONO at 4 °C for 4 h, five washes, western blot
His-PKM2 fusion protein = target: T1, His-PKM2 fusion protein (UniProt P14618 1-531); test: pull-down; GST pull-down: GST-NONO (full length or fragments) on glutathione-Sepharose beads mixed with His-PKM2 for 4 h at 4 °C, five washes, western blot
T1 construct: PKM2, from the pET28a plasmid; source: E. coli BL21, purified (nickel-nitrilotriacetic acid beads)

GST-PKM2-W515A mutant = target: T2, GST-PKM2-W515A mutant (UniProt P14618 1-531, W515A); test: pull-down; GST pull-down: GST-PKM2 (full length, fragments or mutants) incubated with His-NONO at 4 °C for 4 h, five washes, western blot
T2 construct: PKM2 point mutant, from the pGEX-6P-1 plasmid; Probably made on the full-length GST-PKM2; source: E. coli BL21, purified (glutathione S-transferase beads)
T2 sequence (P14618 whole entry W515A, the tested form may be a part): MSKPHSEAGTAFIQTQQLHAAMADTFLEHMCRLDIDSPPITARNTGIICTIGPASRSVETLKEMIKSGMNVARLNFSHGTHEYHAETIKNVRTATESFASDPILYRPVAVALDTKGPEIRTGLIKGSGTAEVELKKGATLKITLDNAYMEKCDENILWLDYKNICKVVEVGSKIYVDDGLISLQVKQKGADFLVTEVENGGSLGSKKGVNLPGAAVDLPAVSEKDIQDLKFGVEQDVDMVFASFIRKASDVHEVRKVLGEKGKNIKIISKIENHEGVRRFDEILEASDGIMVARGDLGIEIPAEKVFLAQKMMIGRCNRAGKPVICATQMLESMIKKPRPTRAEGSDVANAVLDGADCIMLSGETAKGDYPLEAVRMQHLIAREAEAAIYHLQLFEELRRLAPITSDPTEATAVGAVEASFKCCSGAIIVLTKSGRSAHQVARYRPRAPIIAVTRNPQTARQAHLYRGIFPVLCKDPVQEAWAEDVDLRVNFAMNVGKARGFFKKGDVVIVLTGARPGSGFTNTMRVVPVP

GST-PKM2-D487A mutant = target: T3, GST-PKM2-D487A mutant (UniProt P14618 1-531, D487A); test: as above
T3 construct: PKM2 point mutant, from the pGEX-6P-1 plasmid; Probably made on the full-length GST-PKM2; source: E. coli BL21, purified (glutathione S-transferase beads)

GST-PKM2-S406A mutant = target: T4, GST-PKM2-S406A mutant (UniProt P14618 1-531, S406A); test: as above
T4 construct: Probably made on the full-length GST-PKM2; source: E. coli BL21, purified (glutathione S-transferase beads)

GST-PKM2-T412A mutant = target: T5, GST-PKM2-T412A mutant (UniProt P14618 1-531, T412A); test: as above
T5 construct: PKM2 point mutant, from the pGEX-6P-1 plasmid; Probably made on the full-length GST-PKM2; source: E. coli BL21, purified (glutathione S-transferase beads)

GST-PKM2-D476A mutant = target: T6, GST-PKM2-D476A mutant (UniProt P14618 1-531, D476A); test: as above
T6 construct: PKM2 point mutant, from the pGEX-6P-1 plasmid; Probably made on the full-length GST-PKM2; source: E. coli BL21, purified (glutathione S-transferase beads)

GST-PKM2-R526A mutant = target: T7, GST-PKM2-R526A mutant (UniProt P14618 1-531, R526A); test: as above
T7 construct: PKM2 point mutant, from the pGEX-6P-1 plasmid; Probably made on the full-length GST-PKM2; source: E. coli BL21, purified (glutathione S-transferase beads)
T7 sequence (P14618 whole entry R526A): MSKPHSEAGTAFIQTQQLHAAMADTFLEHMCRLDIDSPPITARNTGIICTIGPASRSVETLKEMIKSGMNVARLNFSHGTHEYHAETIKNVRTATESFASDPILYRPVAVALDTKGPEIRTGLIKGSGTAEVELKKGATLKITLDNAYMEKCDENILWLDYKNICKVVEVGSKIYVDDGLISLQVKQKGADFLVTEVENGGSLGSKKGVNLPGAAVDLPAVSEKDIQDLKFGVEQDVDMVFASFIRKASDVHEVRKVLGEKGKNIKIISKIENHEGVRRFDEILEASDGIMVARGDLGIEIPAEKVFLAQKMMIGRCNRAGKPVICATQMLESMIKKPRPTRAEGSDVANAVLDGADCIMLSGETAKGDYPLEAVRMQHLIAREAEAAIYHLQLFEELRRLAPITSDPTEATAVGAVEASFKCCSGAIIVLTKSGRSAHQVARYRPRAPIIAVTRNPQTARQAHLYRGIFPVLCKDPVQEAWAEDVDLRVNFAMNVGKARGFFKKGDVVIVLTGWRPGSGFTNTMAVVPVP

GST-PKM2-R400A mutant = target: T8, GST-PKM2-R400A mutant (UniProt P14618 1-531, R400A); test: as above
T8 construct: PKM2 point mutant, from the pGEX-6P-1 plasmid; Probably made on the full-length GST-PKM2; source: E. coli BL21, purified (glutathione S-transferase beads)

[1] = target: T9, full-length GST-PKM2, wild type (UniProt P14618 1-531); test: as above
T9 construct: PKM2, full length (fragments run to residue 531), from the pGEX-6P-1 plasmid; also called GST-PKM2 WT; PKM2-WT; source: E. coli BL21, purified (glutathione S-transferase beads)

B1: GST-PKM2 fragment F4 (390-531 aa) (domain or fragment, UniProt P14618 390-531, looked up)
chain: YHLQLFEELRRLAPITSDPTEATAVGAVEASFKCCSGAIIVLTKSGRSAHQVARYRPRAPIIAVTRNPQTARQAHLYRGIFPVLCKDPVQEAWAEDVDLRVNFAMNVGKARGFFKKGDVVIVLTGWRPGSGFTNTMRVVPVP
notes: PKM2 residues 390-531, from the pGEX-6P-1 plasmid; also called GST-PKM2 F4; source: E. coli BL21, purified (glutathione S-transferase beads)
His-NONO fusion protein
  binding result: binds

B2: GST-NONO fragment F4 (229-471 aa) (domain or fragment, UniProt Q15233 229-471, looked up)
chain: QLDDEEGLPEKLVIKNQQFHKEREQPPRFAQPGSFEYEYAMRWKALIEMEKQQQDQVDRNIKEAREKLEMEMEAARHEHQVMLMRQDLMRRQEELRRMEELHNQEVQKRKQLELRQEEERRRREEEMRRQQEEMMRRQQEGFKGTFPDAREQEIRMGQMAMGGAMGINNRGAMPPAPVPAGTPAPPGPATMMPDGTLGLTPPTTERFGQAATMEGIGAIGGTPPAFNRAAPGAEFAPNKRRRY
notes: NONO residues 229-471, from the pGEX-6P-1 plasmid; also called GST-NONO F4; source: E. coli BL21, purified (glutathione S-transferase beads)
His-PKM2 fusion protein
  binding result: binds

## B3
GST-PKM2-W515A mutant
  binding result: binds
GST-PKM2-D487A mutant
  binding result: binds
GST-PKM2-S406A mutant
  binding result: binds
GST-PKM2-T412A mutant
  binding result: binds
GST-PKM2-D476A mutant
  binding result: binds
GST-PKM2-R526A mutant
  binding result: binds
GST-PKM2-R400A mutant
  binding result: binds
[1]
  binding result: binds

B4: full-length GST-NONO (natural protein, UniProt Q15233 1-471, looked up)
chain: MQSNKTFNLEKQNHTPRKHHQHHHQQQHHQQQQQQPPPPPIPANGQQASSQNEGLTIDLKNFRKPGEKTFTQRSRLFVGNLPPDITEEEMRKLFEKYGKAGEVFIHKDKGFGFIRLETRTLAEIAKVELDNMPLRGKQLRVRFACHSASLTVRNLPQYVSNELLEEAFSVFGQVERAVVIVDDRGRPSGKGIVEFSGKPAARKALDRCSEGSFLLTTFPRPVTVEPMDQLDDEEGLPEKLVIKNQQFHKEREQPPRFAQPGSFEYEYAMRWKALIEMEKQQQDQVDRNIKEAREKLEMEMEAARHEHQVMLMRQDLMRRQEELRRMEELHNQEVQKRKQLELRQEEERRRREEEMRRQQEEMMRRQQEGFKGTFPDAREQEIRMGQMAMGGAMGINNRGAMPPAPVPAGTPAPPGPATMMPDGTLGLTPPTTERFGQAATMEGIGAIGGTPPAFNRAAPGAEFAPNKRRRY
notes: NONO, full length (fragments run to residue 471), from the pGEX-6P-1 plasmid; also called GST-NONO fusion protein; source: E. coli BL21, purified (glutathione S-transferase beads)
His-PKM2 fusion protein
  binding result: binds
